US20220298231A1 (AC IMMUNE, published 2022)

Assays:
[1] = molecular target: human full-length alpha-synuclein (human, UniProt P37840 1-140); experiment: SPR, 100 nM monomer, relative to chimeric;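 further: SPR with antibody variants captured via anti-human Fc IgG on an amine-coupled chip, isotype IgG1 reference channel subtracted, dissociation rate fitted by 1:1 or heterogeneous ligand model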
Protocol: (§1) Flow channels (Fc) 1-8 were activated with a fresh solution of EDC/NHS (Amine Coupling Kit, 1:1 ratio of both reagents, GE Healthcare Life Sciences, BR100050). […] The chip was deactivated by 1 M ethanolamine-HCl (GE Healthcare Life Sciences, BR100050) at a flow rate of 10 μL/min for 420 s.
(§2) A human IgG1 isotype control diluted in running buffer 1×HBS-EP+ (GE Healthcare Life Sciences, BR100669) was captured onto Fc1 via anti-human Fc IgG at a flow rate of 10 μL/min. […] 10 mM glycine pH 1.5 as regeneration buffer was injected following every dissociation phase.
(§3) The data for reference channel Fc1 and buffer channel were subtracted to generate the sensorgrams. The experimental data was fitted by 1:1 binding model or heterogeneous ligand model.

[2] = molecular target: alpha-synuclein fibrils (Homo sapiens (Human), UniProt P37840 1-140); experiment: SPR, 450 nM aggregates, relative to chimeric;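 further: surface plasmon resonance with anti-human Fc capture, human IgG1 isotype control channel and buffer run subtracted, dissociation rates fitted by 1:1 or heterogeneous ligand binding model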
Protocol: as §1, §2, §3

B1: hACI-7067-1101C8-Ab2_H2L1 (antibody, V domains shown)
VH: EVQLVESGGGLVQPGGSLKLSCAASGFSFNIYAMNWVRQAPGKGLEWVGRIRSKSNAYATYYAASVKGRFTISRDDSKNTLYLQMNNLKTEDTAVYYCVRVGLRFYAMDYWGQGTLVTVSS
VL: DVVMTQSPLSLPVTLGQPASISCRSSQSIVHSNANTYLEWYQQRPGQSPRLLIYKVSNRFSGVPDRFSGSGSGTDFTLKISRVEAEDLGVYYCFQGSQGPLTFGQGTKLEIK
notes: VH on human IgG1 constant, VL on human kappa constant
Which results are given for B1?
Relative koff [1]: 2; Relative koff [2]: 0.5

B2: hACI-7067-1101C8-Ab2_H1L1 (antibody, V domains shown)
VH: EVQLVESGGGLVQPGGSLKLSCAASGFSFNIYAMNWVRQAPGKGLEWVARIRSKSNAYATYYAASVKGRFTISRDDSKNTLYLQMNNLKTEDTAVYYCVRVGLRFYAMDYWGQGTLVTVSS
VL: DVVMTQSPLSLPVTLGQPASISCRSSQSIVHSNANTYLEWYQQRPGQSPRLLIYKVSNRFSGVPDRFSGSGSGTDFTLKISRVEAEDLGVYYCFQGSQGPLTFGQGTKLEIK
notes: as for B1
What does the source list for B2?
Relative koff [1]: 1.3; Relative koff [2]: 851

B3: hACI-7067-1101C8-Ab2_H1L2 (antibody, V domains shown)
VH: EVQLVESGGGLVQPGGSLKLSCAASGFSFNIYAMNWVRQAPGKGLEWVARIRSKSNAYATYYAASVKGRFTISRDDSKNTLYLQMNNLKTEDTAVYYCVRVGLRFYAMDYWGQGTLVTVSS
VL: DVVMTQSPLSLPVTLGQPASISCRSSQSLVHSNANTYLEWYQQRPGQSPRLLIYKVSNRFSGVPDRFSGSGSGTDFTLKISRVEAEDLGVYYCFQGSQGPLTFGQGTKLEIK
notes: as for B1
With B3 as the binder, how does the Relative koff [1] read?
Its Relative koff is 0.6.

What about the Relative koff [2] of the same binder?
Its Relative koff is 131.

B4: hACI-7067-1101C8-Ab2_H1L3 (antibody, V domains shown)
VH: EVQLVESGGGLVQPGGSLKLSCAASGFSFNIYAMNWVRQAPGKGLEWVARIRSKSNAYATYYAASVKGRFTISRDDSKNTLYLQMNNLKTEDTAVYYCVRVGLRFYAMDYWGQGTLVTVSS
VL: DVVMTQSPLSLPVTLGQPASISCRSSQSIVHSNANTYLEWFQQRPGQSPRLLIYKVSNRFSGVPDRFSGSGSGTDFTLKISRVEAEDLGVYYCFQGSQGPLTFGQGTKLEIK
notes: as for B1
B4 was tested. Which Relative koff [1] did it give?
Its Relative koff is 0.2.

And the Relative koff [2]?
The Relative koff was 0.3.

B5: hACI-7067-1101C8-Ab2_H1L4 (antibody, V domains shown)
VH: EVQLVESGGGLVQPGGSLKLSCAASGFSFNIYAMNWVRQAPGKGLEWVARIRSKSNAYATYYAASVKGRFTISRDDSKNTLYLQMNNLKTEDTAVYYCVRVGLRFYAMDYWGQGTLVTVSS
VL: DVVMTQSPLSLPVTLGQPASISCRSSQSLVHSNANTYLEWFQQRPGQSPRLLIYKVSNRFSGVPDRFSGSGSGTDFTLKISRVEAEDLGVYYCFQGSQGPLTFGQGTKLEIK
notes: as for B1
Which results are given for B5?
Relative koff [1]: 0.1; Relative koff [2]: 0.3

B6: hACI-7067-1101C8-Ab2_H2L2 (antibody, V domains shown)
VH: EVQLVESGGGLVQPGGSLKLSCAASGFSFNIYAMNWVRQAPGKGLEWVGRIRSKSNAYATYYAASVKGRFTISRDDSKNTLYLQMNNLKTEDTAVYYCVRVGLRFYAMDYWGQGTLVTVSS
VL: DVVMTQSPLSLPVTLGQPASISCRSSQSLVHSNANTYLEWYQQRPGQSPRLLIYKVSNRFSGVPDRFSGSGSGTDFTLKISRVEAEDLGVYYCFQGSQGPLTFGQGTKLEIK
notes: as for B1
For B6, which Relative koff [1] is on record?
Its Relative koff is 1.1.

What about the Relative koff [2] of the same binder?
The Relative koff was 1.9.

B7: hACI-7067-1101C8-Ab2_H2L3 (antibody, V domains shown)
VH: EVQLVESGGGLVQPGGSLKLSCAASGFSFNIYAMNWVRQAPGKGLEWVGRIRSKSNAYATYYAASVKGRFTISRDDSKNTLYLQMNNLKTEDTAVYYCVRVGLRFYAMDYWGQGTLVTVSS
VL: DVVMTQSPLSLPVTLGQPASISCRSSQSIVHSNANTYLEWFQQRPGQSPRLLIYKVSNRFSGVPDRFSGSGSGTDFTLKISRVEAEDLGVYYCFQGSQGPLTFGQGTKLEIK
notes: as for B1
For B7, which Relative koff [1] is on record?
Its Relative koff is 0.2.

What about the Relative koff [2] of the same binder?
Its Relative koff is 0.3.

B8: hACI-7067-1101C8-Ab2_H2L4 (antibody, V domains shown)
VH: EVQLVESGGGLVQPGGSLKLSCAASGFSFNIYAMNWVRQAPGKGLEWVGRIRSKSNAYATYYAASVKGRFTISRDDSKNTLYLQMNNLKTEDTAVYYCVRVGLRFYAMDYWGQGTLVTVSS
VL: DVVMTQSPLSLPVTLGQPASISCRSSQSLVHSNANTYLEWFQQRPGQSPRLLIYKVSNRFSGVPDRFSGSGSGTDFTLKISRVEAEDLGVYYCFQGSQGPLTFGQGTKLEIK
notes: as for B1
Which Relative koff [1] does the source give for B8 here?
The Relative koff was 0.1.

What about the Relative koff [2] of the same binder?
Its Relative koff is 0.2.

B9: hACI-7067-1101C8-Ab2_H3L1 (antibody, V domains shown)
VH: EVQLVESGGGLVQPGGSLKLSCAASGFSFNIYAMNWVRQAPGKGLEWVGRIRSKSNAYATYYAASVKGRFTISRDDSKNTAYLQMNNLKTEDTAVYYCVRVGLRFYAMDYWGQGTLVTVSS
VL: DVVMTQSPLSLPVTLGQPASISCRSSQSIVHSNANTYLEWYQQRPGQSPRLLIYKVSNRFSGVPDRFSGSGSGTDFTLKISRVEAEDLGVYYCFQGSQGPLTFGQGTKLEIK
notes: as for B1
How did the Relative koff [1] turn out when B9 was run?
Its Relative koff is 1.

And the Relative koff [2]?
The Relative koff was 213.

B10: hACI-7067-1101C8-Ab2_H3L2 (antibody, V domains shown)
VH: EVQLVESGGGLVQPGGSLKLSCAASGFSFNIYAMNWVRQAPGKGLEWVGRIRSKSNAYATYYAASVKGRFTISRDDSKNTAYLQMNNLKTEDTAVYYCVRVGLRFYAMDYWGQGTLVTVSS
VL: DVVMTQSPLSLPVTLGQPASISCRSSQSLVHSNANTYLEWYQQRPGQSPRLLIYKVSNRFSGVPDRFSGSGSGTDFTLKISRVEAEDLGVYYCFQGSQGPLTFGQGTKLEIK
notes: as for B1
Which Relative koff [1] does the source give for B10 here?
Its Relative koff is 0.6.

And the Relative koff [2]?
Its Relative koff is 1230.

B11: hACI-7067-1101C8-Ab2_H3L3 (antibody, V domains shown)
VH: EVQLVESGGGLVQPGGSLKLSCAASGFSFNIYAMNWVRQAPGKGLEWVGRIRSKSNAYATYYAASVKGRFTISRDDSKNTAYLQMNNLKTEDTAVYYCVRVGLRFYAMDYWGQGTLVTVSS
VL: DVVMTQSPLSLPVTLGQPASISCRSSQSIVHSNANTYLEWFQQRPGQSPRLLIYKVSNRFSGVPDRFSGSGSGTDFTLKISRVEAEDLGVYYCFQGSQGPLTFGQGTKLEIK
notes: as for B1
B11 was tested. Which Relative koff [1] did it give?
Its Relative koff is 0.1.

What about the Relative koff [2] of the same binder?
The Relative koff was 0.2.

B12: hACI-7067-1101C8-Ab2_H3L4 (antibody, V domains shown)
VH: EVQLVESGGGLVQPGGSLKLSCAASGFSFNIYAMNWVRQAPGKGLEWVGRIRSKSNAYATYYAASVKGRFTISRDDSKNTAYLQMNNLKTEDTAVYYCVRVGLRFYAMDYWGQGTLVTVSS
VL: DVVMTQSPLSLPVTLGQPASISCRSSQSLVHSNANTYLEWFQQRPGQSPRLLIYKVSNRFSGVPDRFSGSGSGTDFTLKISRVEAEDLGVYYCFQGSQGPLTFGQGTKLEIK
notes: as for B1
Which results are given for B12?
Relative koff [1]: 0.1; Relative koff [2]: 0.3

B13: hACI-7067-1101C8-Ab2_H4L1 (antibody, V domains shown)
VH: EVQLVESGGGLVQPGGSLKLSCAASGFTFNIYAMNWVRQAPGKGLEWVGRIRSKSNAYATYYAASVKGRFTISRDDSKNTLYLQMNNLKTEDTAVYYCVRVGLRFYAMDYWGQGTLVTVSS
VL: DVVMTQSPLSLPVTLGQPASISCRSSQSIVHSNANTYLEWYQQRPGQSPRLLIYKVSNRFSGVPDRFSGSGSGTDFTLKISRVEAEDLGVYYCFQGSQGPLTFGQGTKLEIK
notes: as for B1
With B13 as the binder, how does the Relative koff [1] read?
The Relative koff was 1.9.

What about the Relative koff [2] of the same binder?
The Relative koff was 0.5.

B14: hACI-7067-1101C8-Ab2_H4L2 (antibody, V domains shown)
VH: EVQLVESGGGLVQPGGSLKLSCAASGFTFNIYAMNWVRQAPGKGLEWVGRIRSKSNAYATYYAASVKGRFTISRDDSKNTLYLQMNNLKTEDTAVYYCVRVGLRFYAMDYWGQGTLVTVSS
VL: DVVMTQSPLSLPVTLGQPASISCRSSQSLVHSNANTYLEWYQQRPGQSPRLLIYKVSNRFSGVPDRFSGSGSGTDFTLKISRVEAEDLGVYYCFQGSQGPLTFGQGTKLEIK
notes: as for B1
For B14, which Relative koff [1] is on record?
Its Relative koff is 1.1.

And the Relative koff [2]?
Its Relative koff is 1.6.

B15: hACI-7067-1101C8-Ab2_H4L3 (antibody, V domains shown)
VH: EVQLVESGGGLVQPGGSLKLSCAASGFTFNIYAMNWVRQAPGKGLEWVGRIRSKSNAYATYYAASVKGRFTISRDDSKNTLYLQMNNLKTEDTAVYYCVRVGLRFYAMDYWGQGTLVTVSS
VL: DVVMTQSPLSLPVTLGQPASISCRSSQSIVHSNANTYLEWFQQRPGQSPRLLIYKVSNRFSGVPDRFSGSGSGTDFTLKISRVEAEDLGVYYCFQGSQGPLTFGQGTKLEIK
notes: as for B1
For B15, which Relative koff [1] is on record?
The Relative koff was 0.2.

And the Relative koff [2]?
Its Relative koff is 0.3.

B16: hACI-7067-1101C8-Ab2_H4L4 (antibody, V domains shown)
VH: EVQLVESGGGLVQPGGSLKLSCAASGFTFNIYAMNWVRQAPGKGLEWVGRIRSKSNAYATYYAASVKGRFTISRDDSKNTLYLQMNNLKTEDTAVYYCVRVGLRFYAMDYWGQGTLVTVSS
VL: DVVMTQSPLSLPVTLGQPASISCRSSQSLVHSNANTYLEWFQQRPGQSPRLLIYKVSNRFSGVPDRFSGSGSGTDFTLKISRVEAEDLGVYYCFQGSQGPLTFGQGTKLEIK
notes: as for B1
With B16 as the binder, how does the Relative koff [1] read?
Its Relative koff is 0.1.

What about the Relative koff [2] of the same binder?
The Relative koff was 0.3.

B17: hACI-7067-1101C8-Ab2_H5L2 (antibody, V domains shown)
VH: EVQLVESGGGLVQPGGSLKLSCAASGFSFNIYAMNWVRQAPGKGLEWVGRIRSKSNAYATYYAASVKGRFTISRDDSKNTLYLQMNNLKTEDTAVYYCTRVGLRFYAMDYWGQGTLVTVSS
VL: DVVMTQSPLSLPVTLGQPASISCRSSQSLVHSNANTYLEWYQQRPGQSPRLLIYKVSNRFSGVPDRFSGSGSGTDFTLKISRVEAEDLGVYYCFQGSQGPLTFGQGTKLEIK
notes: as for B1
Which results are given for B17?
Relative koff [1]: 0.8; Relative koff [2]: 1.4

B18: hACI-7067-1101C8-Ab2_H5L3 (antibody, V domains shown)
VH: EVQLVESGGGLVQPGGSLKLSCAASGFSFNIYAMNWVRQAPGKGLEWVGRIRSKSNAYATYYAASVKGRFTISRDDSKNTLYLQMNNLKTEDTAVYYCTRVGLRFYAMDYWGQGTLVTVSS
VL: DVVMTQSPLSLPVTLGQPASISCRSSQSIVHSNANTYLEWFQQRPGQSPRLLIYKVSNRFSGVPDRFSGSGSGTDFTLKISRVEAEDLGVYYCFQGSQGPLTFGQGTKLEIK
notes: as for B1
Which results are given for B18?
Relative koff [1]: 0.2; Relative koff [2]: 0.2

B19: hACI-7067-1101C8-Ab2_H5L4 (antibody, V domains shown)
VH: EVQLVESGGGLVQPGGSLKLSCAASGFSFNIYAMNWVRQAPGKGLEWVGRIRSKSNAYATYYAASVKGRFTISRDDSKNTLYLQMNNLKTEDTAVYYCTRVGLRFYAMDYWGQGTLVTVSS
VL: DVVMTQSPLSLPVTLGQPASISCRSSQSLVHSNANTYLEWFQQRPGQSPRLLIYKVSNRFSGVPDRFSGSGSGTDFTLKISRVEAEDLGVYYCFQGSQGPLTFGQGTKLEIK
notes: as for B1
B19 was tested. Which Relative koff [1] did it give?
Its Relative koff is 0.1.

And the Relative koff [2]?
The Relative koff was 0.2.

B20: hACI-7067-1101C8-Ab2_H7L1 (antibody, V domains shown)
VH: EVQLVESGGGLVQPGGSLKLSCAASGFSFNIYAMNWVRQAPGKGLEWVARIRSKSNAYATYYAASVKGRFTISRDDSKNTLYLQMNNLKTEDTAVYYCVRVGLRFYATDYWGQGTLVTVSS
VL: DVVMTQSPLSLPVTLGQPASISCRSSQSIVHSNANTYLEWYQQRPGQSPRLLIYKVSNRFSGVPDRFSGSGSGTDFTLKISRVEAEDLGVYYCFQGSQGPLTFGQGTKLEIK
notes: as for B1
B20 was tested. Which Relative koff [2] did it give?
The Relative koff was 1420.
